Data as given in US5786462.

Assays:
[1] = system: AMV reverse transcriptase (Avian myeloblastosis virus); settings: intramolecular 3' extension to end of template
[2] = molecular target: T1, HIV-1 reverse transcriptase (Human immunodeficiency virus 1) (UniProt P03366+P03366); assay: inhibition; settings: Ki' printed as ≤ 3 uM; almost no inhibition at 81 nM
[3] = molecular target: T1, HIV-1 reverse transcriptase (Human immunodeficiency virus 1); assay: filter; settings: apparent Kd, HRT buffer 37 C

Row | Sequence | activity [1] | Ki [2] | Kd [3]
1 | ATCCGCCTGATTAGCGATACTTACGTGAGCGTGCTGTCCCCTAAAGGTGATACGTCACTTGAGCAAAATCACCTGCAGGGG [RT26] | 50 % initiation |  | 
2 | ATCCGCCTGATTAGCGATACTNNNNNNNNNNNNNNNNNNNNNNNNNNNNNNNNNNNACTTGAGCAAAATCACCTGCAGGGG [RO degenerate ssDNA library] |  | > 3000 nM | 1400 nM
